Experimental data reported in patent US11905559B2, “Materials and methods for controlling gene expression” (priority 2016, dated 2024).

System: lac Z expression
Assay: β-galactosidase reporter assay (xpt-lacZ fusion)
Type: cell-based, B. subtilis
Conditions: for lac Z expression / transcriptional control (in words): presence and absence of guanine, B. subtilis
Protocol: Kissing-loop mutants were analyzed to determine whether they can exert riboswitch activities by controlling transcription termination, given that the guanine binding was retained in all of them. To test this, a β-galactosidase reporter assay was performed in B.subtilis. […] The gene expression is repressed in wild-type due to the transcription termination in the presence of guanine. […] The fast kissing dynamics between the L2-L3 probably have a stabilizing effect on P1, and therefore an increase in the transcription termination is observed. […] This underscores that the L2-L3 dynamics are directly involved in the P1-helix formation, which affects the terminator hairpin downstream that ultimately results in an alteration of the riboswitch activities.
To assess if the aptamer mutants can exert a transcriptional control similar to the previously reported wild-type xpt-pbuX riboswitch, a xpt-lacZ fusion was constructed as described by Mandal et al., “Riboswitches control fundamental biochemical pathways in Bacillus subtilis and other bacteria”. Cell 113, 577-586 (2003). Briefly, nts −121 to +197 relative to the transcriptional start site of the xpt-pbuX operon from B. subtilis 1A1 (BGSC, Columbus, Ohio) was PCR amplified and cloned upstream of the lacZ reporter gene into pDG1661 vector. After confirming the cloned sequence, plasmid variants were integrated into the amyE locus of the 1A1 strain. Transformants were selected for double markers, specifically for chloramphenicol (5 μg/ml) resistance and sensitivity to spectinomycin (100 μg/ml). Selected B. subtilis colonies were subsequently grown in minimal media (25 g/L K2HPO4·3H2O, 6 g/L KH2PO4, 1 g/L sodium citrate, 0.2 g/l MgSO4·7H2O, 2 g/L Na2SO4, 50 μM FeCl3, 2 μM MnCl2, 50 μg/ml L-Tryptophan, 50 μg/ml L-Lysine, 50 μg/ml L-Methionine, 0.4 g/100 ml glucose, and 0.2 g/100 ml glutamate) at 37° C. with vigorous shaking. Purines were added at a final concentration of 0.1 mg/ml. Cells were harvested at mid-logarithmic growth phase (A600˜0.1-0.4), and resuspended in the above buffer for the reporter assay. The color development was recorded by measuring absorbance, A420 at the end of the reaction with appropriate controls. Data is represented in Miller Units calculated from the following relation:
[formula] where Δt is the total duration taken in the substrate cleavage by […], measured as absorbance, A420. The Miller Units shown in FIG. 4A represents mean±standard deviation from 3 independent experiments, wherein each independent experiment was performed in duplicate.

Molecule | lac Z expression / transcriptional control (in words) | Expression higher than the wild-type (in the presence of guanine) [fold] | Repression exceeding the wild-type repression (in the presence of guanine) [fold]
wt: 69-nucleotide full-length wild-type guanine sensing aptamer RNA sequence from xpt-pbuX operon in B. subtilis (SEQ ID NO: 1) (nucleic acid, RNA, backbone and methylation of C not given here) CACUCAUAUAAUCGCGUGGAUAUGGCACGCAAGUUUCUACCGGGCACCGUAAAUGUCCGACUAUGGGUG | repressed |  | 
m7: m7 mutant guanine sensing aptamer RNA (SEQ ID NO: 8); U25C in J1/2 (nucleic acid, RNA, backbone and methylation of C not given here) CACUCAUAUAACCGCGUGGAUAUGGCACGCAAGUUUCUACCGGGCACCGUAAAUGUCCGACUAUGGGUG |  | ~2.5 | 
m1: m1 mutant guanine sensing aptamer RNA (SEQ ID NO: 2); G37 replaced with adenine in the L2 loop (nucleic acid, RNA, backbone and methylation of C not given here, G37 replaced with adenine in the L2 loop) CACUCAUAUAAUCGCGUGGAUAUAGCACGCAAGUUUCUACCGGGCACCGUAAAUGUCCGACUAUGGGUG | completely de-repressed |  | 
m4: m4 mutant guanine sensing aptamer RNA (SEQ ID NO: 5); A59G/U67C in the P3 hairpin (nucleic acid, RNA, backbone and methylation of C not given here, A59G/U67C in the P3 hairpin) CACUCAUAUAAUCGCGUGGAUAUGGCACGCAAGUUUCUACCGGGCGCCGUAAACGUCCGACUAUGGGUG | moderately repressed | ~7 | 
m6: m6 mutant guanine sensing aptamer RNA (SEQ ID NO: 7); U67A, shorter P3 hairpin and larger L3 loop (nucleic acid, RNA, backbone and methylation of C not given here, U67A, shorter P3 hairpin and larger L3 loop) CACUCAUAUAAUCGCGUGGAUAUGGCACGCAAGUUUCUACCGGGCACCGUAAAAGUCCGACUAUGGGUG | highly repressed |  | ~3
